T1: TnpAREP Ec (TnpAEc-His6) (Escherichia coli, UniProt Q47152 1-165)
T1 sequence: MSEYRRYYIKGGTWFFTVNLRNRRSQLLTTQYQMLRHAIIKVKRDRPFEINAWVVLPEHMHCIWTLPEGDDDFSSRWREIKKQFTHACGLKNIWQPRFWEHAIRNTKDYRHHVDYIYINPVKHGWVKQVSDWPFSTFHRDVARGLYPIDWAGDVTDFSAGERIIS

B1: B268i (61) wt y REPEc (structured_DNA)
DNA: GTAGGACGGATAAGGCGTTTACGCCGCATCCGGCAGTTGTACGCAGGTGCCTGATGCGACG
B2: B268i (61) GTGG (structured_DNA)
DNA: GTGGGACGGATAAGGCGTTTACGCCGCATCCGGCAGTTGTACGCAGGTGCCTGATGCGACG
B3: B2689 mut loop (complement of loop) (structured_DNA)
DNA: GTAGGACGGATAAGGCGTAAACGCCGCATCCGGCAGTTGTACGCAGGTGCCTGATGCGACG
B4: B268i (61) GTAC (structured_DNA)
DNA: GTACGACGGATAAGGCGTTTACGCCGCATCCGGCAGTTGTACGCAGGTGCCTGATGCGACG

Biological target: T1, TnpAREP Ec (TnpAEc-His6)
Test: EMSA; 2 and 4 uM protein, no divalent metal; EMSA: 12.5 mM Tris pH 7.5, 120 mM NaCl, 1 mM DTT, 20 ug/ml BSA, 0.5 ug poly-dIdC, 7% glycerol, no divalent metal; 0.02 uM labelled + 0.5 uM unlabelled oligonucleotide, 45 min 37 C (standard reaction); 8% native gel (TAE, 7% glycerol) at 4 C
Settings: protein: recombinant, tags: His6 (C-terminal by name), chain copies: 2, label: 5'-32P

| Binder | binding result (hairpin with bulge) | binding result |
| --- | --- | --- |
| B1 | binds | – |
| B2 | no binding | – |
| B3 | binds | – |
| B4 | no binding | – |
| GTAGGACGGATAAGCATCCGGCAGTTGTACGCAGGTGCCTGATGCGACG (structured_DNA) [B2688 del upper stem and loop] | – | no binding |
